From paper PMC11779849, “Outside-in engineering of cadherin endocytosis using a conformation strengthening antibody” (Nature Communications, 2025)

Assays:
[1] = biological target: T1, wild-type human P-cadherin ectodomain (EC1-5) (human, UniProt P22223, biotin on the Avi-tag (BirA enzyme)); assay: single-molecule AFM force spectroscopy; as the -CQY experiment but with 40 nM CQY684 Fab in the buffer (+CQY); Pcad EC1-5 on cantilever and substrate; 1 µm/s; Tris buffer pH 7.5 with 2.5 mM CaCl2; settings: both partners purified
T1 construct: signal peptide in the construct; human P-cadherin (placental cadherin), complete extracellular region EC1-5, ectodomain (1-654); Cloned into pcDNA3.1(+); residue numbers W2, K14 count on the mature protein; also called Pcad WT; WT Pcad; source: Expi293 suspension cells, transfected, purified from conditioned media (Ni-NTA), biotinylated with BirA; not shown: Avi-tag, C-terminal, kept

[2] = biological target: T2, human P-cadherin W2A mutant ectodomain (EC1-5) (Homo sapiens, UniProt P22223, point mutant, biotin on the Avi-tag (BirA enzyme)); assay: far-Western, overlay or dot blot; Western blot: purified Pcad ectodomains boiled in SDS-PAGE sample buffer with 2-mercaptoethanol, run on gels, transferred to PVDF; probed with CQY684; settings: both partners purified
T2 construct: signal peptide in the construct; Made with the Q5 site-directed mutagenesis kit from the WT ectodomain construct; also called Pcad W2A; W2A Pcad; source: Expi293 suspension cells, transfected, purified from conditioned media (Ni-NTA), biotinylated with BirA; not shown: Avi-tag, C-terminal, kept
T2 sequence (P22223 whole entry, looked up, stated change not applied, the tested form may be a part): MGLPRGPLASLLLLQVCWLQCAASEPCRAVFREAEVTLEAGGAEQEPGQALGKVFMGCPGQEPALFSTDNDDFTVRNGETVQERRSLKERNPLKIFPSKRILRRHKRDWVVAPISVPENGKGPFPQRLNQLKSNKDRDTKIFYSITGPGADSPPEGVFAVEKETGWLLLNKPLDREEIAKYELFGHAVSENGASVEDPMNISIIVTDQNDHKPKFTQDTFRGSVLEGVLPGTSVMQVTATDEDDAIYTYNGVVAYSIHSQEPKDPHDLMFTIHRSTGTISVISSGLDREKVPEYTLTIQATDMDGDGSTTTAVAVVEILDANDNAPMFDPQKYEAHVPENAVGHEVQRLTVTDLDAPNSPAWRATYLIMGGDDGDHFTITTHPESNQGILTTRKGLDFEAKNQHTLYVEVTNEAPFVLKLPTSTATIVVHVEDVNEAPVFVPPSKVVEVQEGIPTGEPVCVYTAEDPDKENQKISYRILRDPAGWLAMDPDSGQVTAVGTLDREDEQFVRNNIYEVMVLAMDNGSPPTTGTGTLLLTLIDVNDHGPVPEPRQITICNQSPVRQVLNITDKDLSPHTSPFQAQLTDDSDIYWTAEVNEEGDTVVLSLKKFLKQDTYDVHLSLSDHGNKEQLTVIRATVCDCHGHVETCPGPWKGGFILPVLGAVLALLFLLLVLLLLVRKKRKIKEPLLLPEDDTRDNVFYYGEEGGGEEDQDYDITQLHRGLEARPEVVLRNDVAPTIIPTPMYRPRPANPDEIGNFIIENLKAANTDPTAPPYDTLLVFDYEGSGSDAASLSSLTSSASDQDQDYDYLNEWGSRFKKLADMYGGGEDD

T1 sequence (P22223 108-654): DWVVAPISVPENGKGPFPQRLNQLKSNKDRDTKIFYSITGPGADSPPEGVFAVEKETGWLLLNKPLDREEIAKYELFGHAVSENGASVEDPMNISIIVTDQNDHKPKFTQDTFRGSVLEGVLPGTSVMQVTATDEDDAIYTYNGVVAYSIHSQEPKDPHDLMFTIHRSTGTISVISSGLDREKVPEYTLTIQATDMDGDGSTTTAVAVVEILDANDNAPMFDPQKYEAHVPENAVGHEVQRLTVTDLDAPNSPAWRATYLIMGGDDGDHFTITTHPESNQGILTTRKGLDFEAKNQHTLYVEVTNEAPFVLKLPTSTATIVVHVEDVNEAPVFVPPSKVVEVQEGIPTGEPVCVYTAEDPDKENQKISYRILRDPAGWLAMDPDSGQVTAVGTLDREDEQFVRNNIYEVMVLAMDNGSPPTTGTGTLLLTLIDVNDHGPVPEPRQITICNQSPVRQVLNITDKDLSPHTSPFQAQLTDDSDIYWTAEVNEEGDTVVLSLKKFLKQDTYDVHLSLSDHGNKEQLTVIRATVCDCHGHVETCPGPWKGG

binding result [1]: binds
binding result [2]: binds
B1: CQY684 Fab (Fab, V domains shown)
VH: QVQLQQSGPGLVKPSQTLSLTCAISGDSVSSQSAAWNWIRQSPSRGLEWLGRIYYRSKWYNDYALSVKSRITINPDTSKNQFSLQLNSVTPEDTAVYYCARGEGYGREGFAIWGQGTLVTVSS
VL: DIQMTQSPSSLSASVGDRVTITCRASQTISNTLAWYQQKPGKAPKLLIYAASNLQSGVPSRFSGSGSGTDFTLTISSLQPEDFATYYCQQYLSWFTFGQGTKVEIK
notes: variable region cloned into a human IgG Fab backbone; the constant parts of the GenScript human IgG Fab backbone may differ from those in PDB 6ZTR; also called CQY Fab; antibody part of the antibody-drug conjugate PCA062; source: recombinantly generated by GenScript
